Assay results reported in the supplement of paper PMC10567573.

B1: EPB41L3 (parent)
chain: FRFAPNHTKELEDKVIELHKSHRG
B2: KRT13 (parent)
chain: YGGGLGGGFGGGFAGGFVDFGACD
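Also: lentivirally expressed fusions sorted by FACS into six bins by GFP to DsRed ratio, PSI derived from sequencing read proportions per bin multiplied by bin number.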

Variants of: B1
Assay: protein stability index of a GFP-peptide fusion (GPS, HEK-293T) (PSI 1-6); higher = more stable
Details: c terminus: a fixed tail appended
Variant D13C has a protein stability index of 2.65.
In the case of D13E, the protein stability index is reported as 2.8.
For D13G, the protein stability index was 3.4.
D13T showed a protein stability index of 1.67.
Variant D13Q has a protein stability index of 3.39.
Work on E12R yielded a protein stability index of 1.56.
E12I gave a protein stability index of 1.27.
Work on N6G yielded a protein stability index of 2.56.
Work on N6F yielded a protein stability index of 1.74.
In the case of R2P, the protein stability index is reported as 3.82.
Variant R2M has a protein stability index of 2.89.
Variant F1K has a protein stability index of 4.35.
Work on F1D yielded a protein stability index of 4.4.
Work on G24I yielded a protein stability index of 2.04.
For G24Y, the protein stability index was 1.56.
For G24F, the protein stability index was 2.31.
Variant K20V has a protein stability index of 2.71.
L18F gave a protein stability index of 1.73.
With R23I the protein stability index was 1.72.
R23N gave a protein stability index of 2.
In the case of H19I, the protein stability index is reported as 1.83.
H19S showed a protein stability index of 2.11.
For H19W, the protein stability index was 1.53.
Work on T8Y yielded a protein stability index of 2.05.
In the case of T8M, the protein stability index is reported as 2.21.
In the case of T8E, the protein stability index is reported as 2.78.
With I16A the protein stability index was 2.46.
Work on I16L yielded a protein stability index of 2.01.
Variant E10C has a protein stability index of 1.46.
For E10Q, the protein stability index was 1.68.
In the case of E10M, the protein stability index is reported as 1.69.
Variant E10N has a protein stability index of 1.41.
In the case of E10G, the protein stability index is reported as 2.04.
E10P gave a protein stability index of 1.63.
E17L gave a protein stability index of 1.67.
Variant S21N has a protein stability index of 2.88.
Work on P5F yielded a protein stability index of 1.24.
With P5E the protein stability index was 3.49.
For P5G, the protein stability index was 1.98.
For P5T, the protein stability index was 2.44.
With V15P the protein stability index was 2.33.
K14L showed a protein stability index of 1.78.
Work on A4Q yielded a protein stability index of 2.18.
Work on A4H yielded a protein stability index of 2.42.
For H7L, the protein stability index was 1.62.
In the case of H7V, the protein stability index is reported as 1.85.
With L11C the protein stability index was 2.18.
F3K showed a protein stability index of 4.63.
With F3V the protein stability index was 4.42.
In the case of K9P, the protein stability index is reported as 2.15.
K9Y showed a protein stability index of 1.99.
Work on K9H yielded a protein stability index of 2.06.
H22D gave a protein stability index of 2.48.

Variants of: B2
Assay: as above
Details: c terminus: a fixed tail appended
D19V gave a protein stability index of 2.61.
D19P gave a protein stability index of 1.32.
With D19W the protein stability index was 3.27.
In the case of D19K, the protein stability index is reported as 2.
D19S showed a protein stability index of 2.12.
D19Y gave a protein stability index of 2.33.
With D19T the protein stability index was 1.95.
D19R showed a protein stability index of 1.96.
D19G gave a protein stability index of 2.41.
Variant D19Q has a protein stability index of 1.41.
For D19A, the protein stability index was 3.27.
With D19C the protein stability index was 1.86.
F20W showed a protein stability index of 2.62.
Variant F20I has a protein stability index of 1.27.
F20H gave a protein stability index of 2.69.
F20R gave a protein stability index of 1.78.
Variant F20Q has a protein stability index of 2.36.
In the case of F20V, the protein stability index is reported as 1.36.
F20S gave a protein stability index of 1.82.
With F20G the protein stability index was 1.75.
In the case of F20T, the protein stability index is reported as 2.22.
F20N gave a protein stability index of 2.31.
With F20E the protein stability index was 2.18.
F20M gave a protein stability index of 1.53.
In the case of F20K, the protein stability index is reported as 2.11.
In the case of F20A, the protein stability index is reported as 1.69.
Work on F20L yielded a protein stability index of 1.56.
For F20Y, the protein stability index was 1.5.
In the case of F20P, the protein stability index is reported as 1.69.
For F20D, the protein stability index was 2.19.
Work on A22D yielded a protein stability index of 1.42.
In the case of A22H, the protein stability index is reported as 1.54.
For A22F, the protein stability index was 2.1.
Work on A22T yielded a protein stability index of 1.9.
With A22L the protein stability index was 1.2.
With A22S the protein stability index was 1.2.
For A22I, the protein stability index was 1.33.
For A22P, the protein stability index was 2.27.
A22K showed a protein stability index of 1.98.
Work on A22W yielded a protein stability index of 1.75.
A22E showed a protein stability index of 1.92.
For A22M, the protein stability index was 2.09.
A22N showed a protein stability index of 1.95.
In the case of A22Q, the protein stability index is reported as 2.34.
Work on A22C yielded a protein stability index of 1.9.
Variant A22Y has a protein stability index of 1.99.
In the case of A22V, the protein stability index is reported as 2.4.
Variant G21Y has a protein stability index of 3.5.
For G21A, the protein stability index was 2.25.
Variant G21F has a protein stability index of 2.87.
In the case of G21S, the protein stability index is reported as 2.02.
Variant G21H has a protein stability index of 1.93.
G21W showed a protein stability index of 1.99.
In the case of G21P, the protein stability index is reported as 1.67.
For G21E, the protein stability index was 1.88.
In the case of G21N, the protein stability index is reported as 1.68.
In the case of G21T, the protein stability index is reported as 2.69.
In the case of G21R, the protein stability index is reported as 2.37.
G21D gave a protein stability index of 1.92.
Variant G21M has a protein stability index of 2.21.
Work on G21Q yielded a protein stability index of 1.76.
G21C showed a protein stability index of 1.
Variant G21I has a protein stability index of 1.99.
Work on G21K yielded a protein stability index of 1.93.
For G21V, the protein stability index was 1.6.
For C23H, the protein stability index was 2.2.
Variant C23W has a protein stability index of 1.84.
C23D gave a protein stability index of 1.31.
For C23T, the protein stability index was 1.81.
With C23F the protein stability index was 1.41.
With C23L the protein stability index was 1.72.
With C23K the protein stability index was 2.01.
For C23N, the protein stability index was 1.76.
C23R showed a protein stability index of 2.79.
Work on C23S yielded a protein stability index of 1.92.
Work on C23M yielded a protein stability index of 1.49.
C23V gave a protein stability index of 1.22.
In the case of C23Y, the protein stability index is reported as 1.6.
In the case of C23E, the protein stability index is reported as 2.14.
In the case of C23G, the protein stability index is reported as 1.83.
C23I gave a protein stability index of 1.53.
In the case of C23A, the protein stability index is reported as 3.97.
C23P showed a protein stability index of 1.8.
C23Q showed a protein stability index of 1.31.
With D24K the protein stability index was 1.43.
Variant D24V has a protein stability index of 2.45.
For D24I, the protein stability index was 5.23.
D24P showed a protein stability index of 1.85.
D24N showed a protein stability index of 3.54.
Work on D24E yielded a protein stability index of 2.57.
D24Q gave a protein stability index of 1.91.
With D24R the protein stability index was 2.16.
In the case of D24F, the protein stability index is reported as 2.17.
D24S showed a protein stability index of 2.43.
For D24T, the protein stability index was 1.91.
Variant D24H has a protein stability index of 1.49.
D24W gave a protein stability index of 3.82.
V18R gave a protein stability index of 2.95.
Variant V18K has a protein stability index of 2.09.
With V18E the protein stability index was 1.78.
V18P showed a protein stability index of 1.96.
V18L showed a protein stability index of 1.38.
V18H gave a protein stability index of 2.44.
Work on V18M yielded a protein stability index of 1.65.
V18D showed a protein stability index of 1.93.
With V18Q the protein stability index was 1.92.
For V18W, the protein stability index was 2.79.
Work on V18C yielded a protein stability index of 1.38.
V18T gave a protein stability index of 2.17.
V18G showed a protein stability index of 3.27.
With V18N the protein stability index was 1.5.
With V18I the protein stability index was 1.6.
V18Y gave a protein stability index of 1.58.
With V18S the protein stability index was 3.77.
